From publication PMC10568284

What was measured:
[1] = target: tissue factor pathway inhibitor alpha (human) (UniProt P10646); experiment: SPR
antithrombin = antithrombin (UniProt P01008); experiment: SPR
UniProt P01008, sequence (P01008 33-464): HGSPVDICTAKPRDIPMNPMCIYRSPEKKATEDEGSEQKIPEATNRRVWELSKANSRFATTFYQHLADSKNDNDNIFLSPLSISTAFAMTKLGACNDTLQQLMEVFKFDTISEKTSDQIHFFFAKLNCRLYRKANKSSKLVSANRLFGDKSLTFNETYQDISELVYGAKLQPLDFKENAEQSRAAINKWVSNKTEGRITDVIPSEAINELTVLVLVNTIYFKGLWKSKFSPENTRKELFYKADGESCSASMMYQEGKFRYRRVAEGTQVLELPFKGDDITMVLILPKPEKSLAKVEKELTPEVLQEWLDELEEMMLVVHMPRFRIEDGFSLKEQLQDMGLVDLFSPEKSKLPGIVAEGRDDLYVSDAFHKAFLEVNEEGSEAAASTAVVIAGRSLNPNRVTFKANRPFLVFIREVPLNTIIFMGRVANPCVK

UniProt P10646, sequence (P10646 29-304): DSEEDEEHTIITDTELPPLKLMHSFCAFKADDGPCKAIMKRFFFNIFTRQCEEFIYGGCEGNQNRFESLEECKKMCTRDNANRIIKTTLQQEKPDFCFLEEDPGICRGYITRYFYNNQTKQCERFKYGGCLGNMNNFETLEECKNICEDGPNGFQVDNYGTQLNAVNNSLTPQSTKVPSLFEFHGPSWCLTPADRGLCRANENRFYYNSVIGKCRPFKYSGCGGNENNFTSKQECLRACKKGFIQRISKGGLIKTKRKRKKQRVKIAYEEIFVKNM

Kd [1] [nM]	Kd (antithrombin) [nM]	Substance
2	416	S195A Gla-domainless factor Xa (from UniProt P00742 82-182; P00742 235-488) (domain or fragment)
–	460	K96YS195A GD-FXa (from UniProt P00742 82-182; P00742 235-488) (domain or fragment)
